Assay results: patent publication US20250129140A1, “ANTI-HCMV ANTIBODIES AND ANTIGEN-BINDING FRAGMENTS THEREOF” (ICAHN SCHOOL OF MEDICINE AT MOUNT SINAI, priority 2021, published 2025)

Biological target: MHC class I on ARPE-19 cells (Homo sapiens)
Assay: flow cytometry on ARPE-19 cells infected with AD169R (GFP reporter), 6 dpi, antibody 2 µg/mL, anti-mouse AF647 secondary

In the case of α-MHC-1 (W6/32) (antibody), the Q1, percent of cells GFP- and Alexa Fluor 647+ is reported as 86.9% and the Q2, percent of cells GFP+ and Alexa Fluor 647+ is reported as 12.7%.
